Experimental data: patent US20220280618A1 (ADMINISTRATORS OF THE TULANE EDUCATIONAL FUND, published 2022)

T1: MET6-Biotin peptide (Candida albicans, not fully specified; C-terminal K-Biotin (PRIGGQRELKKITEPGGSGGSGK-Biotin))
T1 construct: also called btn-Met6 peptide; MFT6-Biotin
T1 peptide: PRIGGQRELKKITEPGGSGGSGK

T2: Fba-Biotin peptide (Candida albicans, not fully specified; C-terminal K-Biotin (YGKDVKDLFDYAQEGGSGGSGK-Biotin))
T2 construct: also called btn-Fba peptide
T2 peptide: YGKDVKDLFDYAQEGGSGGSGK

T3: full-length His-tagged recombinant Fba protein from C. albicans (Candida albicans, UniProt Q9URB4 2-359)
T3 construct: mature; also called His-Fba; whole length recombinant Fba (C. albicans); not shown: six-histidine (6-His) amino terminal tag from vector pRSET A
T3 sequence (looked up): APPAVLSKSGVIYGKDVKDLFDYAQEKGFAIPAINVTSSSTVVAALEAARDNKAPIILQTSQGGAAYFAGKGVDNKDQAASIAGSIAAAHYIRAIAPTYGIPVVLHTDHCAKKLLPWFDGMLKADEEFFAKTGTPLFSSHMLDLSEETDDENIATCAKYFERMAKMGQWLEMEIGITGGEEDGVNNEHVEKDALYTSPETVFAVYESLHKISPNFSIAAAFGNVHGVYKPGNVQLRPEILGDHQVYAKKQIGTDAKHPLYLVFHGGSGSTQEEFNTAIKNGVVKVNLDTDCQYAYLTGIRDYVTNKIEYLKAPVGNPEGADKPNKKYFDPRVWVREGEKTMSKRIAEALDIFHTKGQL

T4: full-length His-tagged recombinant Met6 protein from C. albicans (Candida albicans, UniProt P82610 2-767)
T4 construct: mature; also called His-Met6; whole length recombinant MET6; not shown: six-histidine (6-His) amino terminal tag from vector pRSET A
T4 sequence (looked up): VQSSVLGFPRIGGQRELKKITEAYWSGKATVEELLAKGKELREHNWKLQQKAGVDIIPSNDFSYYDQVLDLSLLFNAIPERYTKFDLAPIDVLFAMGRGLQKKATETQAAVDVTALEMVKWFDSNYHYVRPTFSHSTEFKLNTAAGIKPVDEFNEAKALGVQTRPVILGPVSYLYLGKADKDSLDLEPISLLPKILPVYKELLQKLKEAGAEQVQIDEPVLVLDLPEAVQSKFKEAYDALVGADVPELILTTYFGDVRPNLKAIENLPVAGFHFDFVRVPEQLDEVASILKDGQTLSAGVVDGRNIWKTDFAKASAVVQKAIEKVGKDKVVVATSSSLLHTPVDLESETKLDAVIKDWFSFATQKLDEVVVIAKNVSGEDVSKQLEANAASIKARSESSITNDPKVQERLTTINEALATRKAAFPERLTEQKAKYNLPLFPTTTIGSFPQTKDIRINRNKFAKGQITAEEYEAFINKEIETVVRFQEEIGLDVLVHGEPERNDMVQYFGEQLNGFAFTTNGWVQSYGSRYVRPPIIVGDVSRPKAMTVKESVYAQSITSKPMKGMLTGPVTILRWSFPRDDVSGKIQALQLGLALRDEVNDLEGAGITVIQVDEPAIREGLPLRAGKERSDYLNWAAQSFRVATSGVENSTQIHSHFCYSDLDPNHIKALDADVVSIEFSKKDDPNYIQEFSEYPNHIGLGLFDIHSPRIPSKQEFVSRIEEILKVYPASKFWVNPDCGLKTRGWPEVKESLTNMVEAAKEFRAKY

B1: MET6 peptide (synthetic, from methyltetrahydropteroyltriglutamate homocysteine methyltransferase) (peptide)
peptide: PRIGGQRELKKITE
notes: also called MEM
B2: Fba peptide (synthetic, from fructose-bisphosphate aldolase) (peptide)
peptide: YGKDVKDLFDYAQE
B3: HuMAb 6.6K (anti-Met6) (antibody, V domains shown)
VH: QVQLVESGGGVVQPGRSLRLSCAASGFNFISYGMHWVRQAPGKGLEWVALISYDGSNKYYADSVKGRFTISRDNSKNTLYLQMNSLRAEDTAVYYCATEAYVETAMVPQYWGQGTLVTVSS
VL: SYELTQPPSVSVSPGQTARITCSGDALPKEYAYWYQQKSGQAPVVVIYEDSKRPSGIPERFSGSSSGTMATLTISGAQVEDEADYHCYSTDSSGNPVFGGGTKLTVL
B4: HuMAb 1.B10 (anti-Met6) (antibody, V domains shown)
VH: EVQLVQSGGGLVKPGGSLRLSCAASGFIFSNAWMNWVRQAPGKGLEWVGRIKRESDSGTTDYGAAVKGRFTISRDDSKYTLYLQMNSLKTDDTAVYYCTTGWADYWGQGTLVTVSS
VL: LIQPPSVSVSPGQTARITCSGDALPNKYAYWYQQKPGQAPSVVMFRDNERPSGIPERFSGSSSGTTVTLTISGVQAEDESDFYCQSTDSNGAWVFGGGTKLTVL
B5: HuMAb 6.11C (anti-Fba) (antibody, V domains shown)
VH: QVQLVQSGAEVKKPGASVQVSCRTSGYTFINYFMHWVRQAPGQGLEWMGIINPNGGKTRYAQKFQGRLTVTRDTSTNTVYVELSNLRYEDTGLYFCARDPEGEVGFDYWGQGTQVTVSS
VL: SHELTQPPSVSVSPGQTARITCSGDALSKQYAYWYQQKPGQAPVVVIYKDNERPSGIPERFSGSSSGTTVTLTITGVQAEDEADYYCQSTDTSRAYYVFGTGTKVTVL
B6: HuMAb 1.10C (anti-MET6) (antibody, V domains shown)
VH: EVQLVESGGGLVKPGGSLRLSCKASGFNFTNSWMSWVRQAPGKGLEWLGRIKSESDGGATRYAAPVTGRFSISRDDSRDMLFLQMNSLTTDDTAMYYCTTNKVTTNYWGQGTLVTVSS
VL: DIVMTQSPVTLAVSLGERATINCKSSQSLLYSSDNENYLTWYQQKPGQPPKLLIYWASVRESGIPDRFIGSGSVTDFTLTINNVQAEDVAVYYCQQFRYTPLTFGQGTTLEIK
notes: also called 1.100
B7: HuMAb 1.11D (anti-Fba) (antibody, V domains shown)
VH: EVQLVQSGGGLVQPGGSLRLSCSASGFTFRTYAMSWVRQAPGKGLQWVSVISRSGDTTYHTDSVKGRFTISRDNSRNALYLQLDSLRAEDTALYYCAKTGNMAVGDRRTNYSYYYMDVWGKGTTVTVSS
VL: DIVMTQSPSTLSASVGDRVTITCRASQSIKYWLAWYQQKPGKAPKLLIYKASNLESGVPSRFSGSGSGTEFTLTISSLRPDDFATYYCQQYNSYPLTFGGGTVEIK

What was measured:
HuMAb 1.10C (anti-MET6) = biological target: B6; test: competition ELISA: 1.10C mixed with free MET6 peptide and added to MET6 peptide-coated wells; the competitor is the coated MET6 peptide
HuMAb 1.11D (anti-Fba) = biological target: B7; test: competition ELISA: 1.11D mixed with free Fba peptide and added to Fba peptide-coated wells; the competitor is the coated Fba peptide
MET6-Biotin peptide [1] = biological target: T1, MET6-Biotin peptide; test: BLI (BLITz), btn-Met6 peptide on streptavidin tip, IgG in solution
Description: (§1) Binding experiments were performed using a FortèBio BLITz Bi-layer interferometer at 25° C. […] Loaded sensors were dipped into serial dilutions of the cognate IgG.

Fba-Biotin peptide [2] = biological target: T2, Fba-Biotin peptide; test: BLI (BLITz), btn-Fba peptide on streptavidin tip, IgG in solution
Description: as §1

MET6-Biotin peptide [3] = biological target: T1, MET6-Biotin peptide; test: BLI (Octet HTX), steady-state analysis, biotinylated peptide on streptavidin sensor, IgG in solution; steady-state measurement (FIG. 5)
[4] = biological target: T3, full-length His-tagged recombinant Fba …; test: bio-layer interferometry (BLITz), His-Fba (C. albicans) loaded on an anti-penta-His sensor, antibody in the association step
[5] = biological target: B2; test: ELISA on peptide-coated wells, HRP goat anti-human IgG, absorbance at 450 nm
[6] = biological target: B1; test: as above
[7] = biological target: T4, full-length His-tagged recombinant Met6 …; test: bio-layer interferometry (BLITz), His-Met6 (C. albicans) from bacterial supernatant loaded on an anti-penta-His sensor, antibody in the association step
Description: Before beginning, an Anti-Penta-His sensor (HisK sensor; FortèBio) was hydrated in Kinetics Buffer [PBS+0.1% BSA+0.02% Tween20]. […] A secondary baseline step was performed using Kinetics Buffer. Then an association step was performed with the loaded tip dipped into a solution containing purified. […] Finally, the tip was transitioned back to Kinetics Buffer for a dissociation step.

MET6-Biotin peptide [8] = biological target: T1, MET6-Biotin peptide; test: bio-layer interferometry (Octet), steady state analysis, met6-btn on streptavidin sensors
MET6-Biotin peptide [9] = biological target: T1, MET6-Biotin peptide; test: bio-layer interferometry (Octet), met6-btn loaded on streptavidin sensors, kinetic 1:1 fit; column head kdis(1/s)
MET6-Biotin peptide [10] = biological target: T1, MET6-Biotin peptide; test: BLI (BLITz), btn-Met6 peptide on streptavidin tip, IgG in solution; BLITz run of Dec. 3, 2018
MET6-Biotin peptide [11] = biological target: T1, MET6-Biotin peptide; test: bio-layer interferometry (Octet), met6-btn loaded on streptavidin sensors, kinetic 1:1 fit
MET6-Biotin peptide [12] = biological target: T1, MET6-Biotin peptide; test: BLI (Octet HTX), kinetic 1:1 fit, biotinylated peptide on streptavidin sensor, IgG in solution; kinetic measurement (FIG. 4)
Fba-Biotin peptide [13] = biological target: T2, Fba-Biotin peptide; test: bio-layer interferometry (Octet), steady state analysis, Fba-btn on streptavidin sensors
Fba-Biotin peptide [14] = biological target: T2, Fba-Biotin peptide; test: BLI (Octet HTX), steady-state analysis, biotinylated peptide on streptavidin sensor, IgG in solution; steady-state measurement (FIG. 5)
Fba-Biotin peptide [15] = biological target: T2, Fba-Biotin peptide; test: bio-layer interferometry (Octet), Fba-btn at 10 ng/ml loaded on streptavidin sensors, kinetic 1:1 fit
Fba-Biotin peptide [16] = biological target: T2, Fba-Biotin peptide; test: bio-layer interferometry (Octet), Fba-btn at 10 ng/ml loaded on streptavidin sensors, kinetic 1:1 fit; column head kdis(1/s)
Fba-Biotin peptide [17] = biological target: T2, Fba-Biotin peptide; test: BLI (Octet HTX), kinetic 1:1 fit, biotinylated peptide on streptavidin sensor, IgG in solution; kinetic measurement (FIG. 4)

Which “IC50 (read off the curve)” value (HuMAb 1.10C (anti-MET6)) does the source give for B1 here?
The value was about 2 µg/mL.

B2 was tested. Which “IC50 (read off the curve)” value (HuMAb 1.11D (anti-Fba)) did it give?
Its value is about 4 µg/mL.

What does the source list for B3?
Kd (MET6-Biotin peptide [1]): 160 nM; koff (MET6-Biotin peptide [1]): 0.012 s⁻¹; kon (MET6-Biotin peptide [1]): 75000 M⁻¹ s⁻¹

How did the Kd (MET6-Biotin peptide [1]) turn out when B4 was run?
Its Kd is 31 nM.

And the koff (MET6-Biotin peptide [1])?
Its koff is 0.0064 s⁻¹.

And the kon (MET6-Biotin peptide [1])?
Its kon is 210000 M⁻¹ s⁻¹.

Which results are given for B5?
Kd (Fba-Biotin peptide [2]): 120 nM; koff (Fba-Biotin peptide [2]): 0.06 s⁻¹; kon (Fba-Biotin peptide [2]): 490000 M⁻¹ s⁻¹

Which Kd (MET6-Biotin peptide [3]) does the source give for B6 here?
Its Kd is about 310 nM.

Does B6 bind [4]?
Result: no binding

What about the koff (MET6-Biotin peptide [1]) of the same binder?
The koff was 0.0055 s⁻¹.

What about the kon (MET6-Biotin peptide [1]) of the same binder?
Its kon is 31000 M⁻¹ s⁻¹.

Does B6 bind [5]?
Result: no binding

Does B6 bind [6]?
Result: binds

Does B6 bind [7]?
Result: binds

And the Kd (MET6-Biotin peptide [8])?
Its Kd is 310 nM.

What about the koff (MET6-Biotin peptide [9]) of the same binder?
The koff was 0.0124 s⁻¹.

And the Kd (MET6-Biotin peptide [10])?
The Kd was 180 nM.

What about the Kd (MET6-Biotin peptide [11]) of the same binder?
Its Kd is 179 nM.

And the kon (MET6-Biotin peptide [11])?
Its kon is 69500 M⁻¹ s⁻¹.

And the Kd (MET6-Biotin peptide [12])?
The Kd was about 180 nM.

Which Kd (Fba-Biotin peptide [13]) does the source give for B7 here?
The Kd was 77 nM.

What about the Kd (Fba-Biotin peptide [2]) of the same binder?
Its Kd is 19.8 nM.

And the koff (Fba-Biotin peptide [2])?
Its koff is 0.00073 s⁻¹.

And the kon (Fba-Biotin peptide [2])?
Its kon is 38000 M⁻¹ s⁻¹.

What about the Kd (Fba-Biotin peptide [14]) of the same binder?
The Kd was about 77 nM.

What about the Kd (Fba-Biotin peptide [15]) of the same binder?
The Kd was 58.5 nM.

And the kon (Fba-Biotin peptide [15])?
The kon was 111000 M⁻¹ s⁻¹.

And the koff (Fba-Biotin peptide [16])?
Its koff is 0.00646 s⁻¹.

What about the Kd (Fba-Biotin peptide [17]) of the same binder?
Its Kd is about 58 nM.
